Measured values reported in patent US20240002497A1 (Merck Sharp & Dohme, published 2024).
Where two headings read alike, the source gives them in different places. Values belong to the binder of their own block, whether it stands above or below them.

What was measured:
rhNav1.7α + β1-β2-β3 [1] = molecular target: rhNav1.7α + β1-β2-β3 (rhesus monkey); assay: cell-based or functional assay
huNav1.7α + β1 = huNav1.7α + β1 (human); assay: cell-based or functional assay
huNav1.7α + β1-β2-β3 [2] = molecular target: T1, huNav1.7α + β1-β2-β3 (human, UniProt Q15858 1-1988; A5A6L6 19-218; O60939 30-215; Q2KI11 23-215); assay: binding FACS, CHO FlpIn
T1 construct: also called huNav1.7-beta1-beta2-beta3; huNav1.7-β1-β2-β3
Procedure, shortened: (§1)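 Cells in FACS buffer (PBS, 10% FBS, NaN₃) were incubated with purified FLAG3-tagged ISVD for 30 minutes at 4° C. Bound ISVD was detected by flow cytometry with murine anti-Flag, and dead cells were excluded with 1 μg/mL propidium iodide.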

rhNav1.7α + β1-β2-β3 [3] = molecular target: T2, rhNav1.7α + β1-β2-β3 (rhesus monkey); assay: binding FACS, CHO FlpIn
T2 construct: also called rhNav1.7-beta1-beta2-beta3; rhNav1.7-β1-β2-β3
Procedure, shortened: as §1

muNav1.7α [4] = molecular target: T3, muNav1.7α (murine, UniProt Q62205 1-1984); assay: binding FACS, HEK JmpIn
T3 construct: HEK JmpIn cells; also called murine Nav1.7α
Procedure: (§2) Binding of the ISVDs to cell-expressed Nav1.7α was detected via murine anti-Flag (Sigma, catalog #F1804). Briefly, cells were resuspended in FACS buffer (PBS, 10% FBS, NaN₃) and transferred to a 96-well V-bottom plate at 1×10^5 cells/well. Purified FLAG3-tagged ISVD was diluted in FACS buffer and added to the cells for 30 minutes at 4° C. […] Prior to the read-out, the samples were resuspended in 1 μg/mL propidium iodide (Sigma, catalog #P4170) to exclude dead cells. Between each step, the cells were centrifuged for 5 minutes at 200 grams and washed with 100 μL/well FACS buffer.

huNav1.7α + β1-β2-β3 [5] = molecular target: T1, huNav1.7α + β1-β2-β3; assay: binding FACS, CHO FlpIn; remark: listed apart in the source
Procedure: as §2

rhNav1.7α + β1-β2-β3 [6] = molecular target: T2, rhNav1.7α + β1-β2-β3; assay: binding FACS, CHO FlpIn; remark: listed apart in the source
Procedure: as §2

muNav1.7α [7] = molecular target: T3, muNav1.7α; assay: binding FACS, HEK JmpIn; remark: listed apart in the source
huNav1.7α + β1-β2-β3 [8] = molecular target: T4, huNav1.7α + β1-β2-β3 (human, UniProt Q15858 1-1988; A5A6L6 19-218; O60939 30-215; Q2KI11 23-215); assay: binding FACS, CHO FlpIn cells
T4 construct: Cell line (CHO FlpIn, HEK FlpIn, transient HEK293T) is named under assay; also called huNav1.7-beta1-beta2-beta3; human Nav1.7α with Navβ1, Navβ2 and Navβ3
Procedure: as §2
(§3) Based on the huNav1.7α model (as described above) the following huNav1.7α-rhNav1.7α polymorphisms can be allocated to the extracellular part of DI: N146S, F276V, R277Q, E281V and V331M. The first of the residues is in DI S1-S2 whereas the latter four residues belong to DI S5-S6. FACS binding studies (as described above) were performed to stable CHO FlpIn cell lines expressing different variants of huNav1.7+β1−β2−β3 each including one of the four possible extracellular huNav1.7α-rhNav1.7α polymorphisms in the DI S5-S6 region: F276V, R277Q, E281V and V331M (Table 23 and FIGS. 22A-22F). Individual polymorphisms were each sufficient to abolish the binding of F0103265B04, F0103362B08, F010301080, and F0103262B06 to huNav1.7α, recapitulating the absence of binding on rhNav1.7α. F0103262CO2, F0103275B05 and F0103387G05 are more subtly affected in terms of EC50 or Bmax by some of the polymorphisms. None of the individual DI S5-S6 polymorphisms by themselves appear to have an impact on the binding of the two rhNav1.7α cross-reactive ISVDs F0103387G04 and F0103464B09. In addition, no effect on binding of the two ISVDs was observed (data not shown) for the three extracellular DIV VSD huNav1.7α-rhNav1.7α polymorphisms Q1530P, H1531Y and E1534D (FIG. 22G).

rhNav1.7α + β1-β2-β3 [9] = molecular target: T5, rhNav1.7α + β1-β2-β3 (rhesus monkey); assay: binding FACS, CHO FlpIn cells
T5 construct: also called rhNav1.7-beta1-beta2-beta3; rhesus Nav1.7α
Procedure: as §2, §3

[10] = molecular target: T6, huNav1.7α(F276V) + β1-β2-β3 (human, UniProt Q15858 1-1988; A5A6L6 19-218; O60939 30-215; Q2KI11 23-215); assay: binding FACS, CHO FlpIn cells
T6 construct: polyprotein as encoded, P2A sites liberate the subunits; the entry already carries F276V; also called huNav1.7(F276V)-beta1-beta2-beta3
Procedure: as §2, §3

[11] = molecular target: T7, huNav1.7α(R277Q) + β1-β2-β3 (human); assay: binding FACS, CHO FlpIn cells
T7 construct: polyprotein as encoded; the entry already carries R277Q; also called huNav1.7(R277Q)-beta1-beta2-beta3
Procedure: as §2, §3

[12] = molecular target: T8, huNav1.7α(E281V) + β1-β2-β3 (human); assay: binding FACS, CHO FlpIn cells
T8 construct: polyprotein as encoded; the entry already carries E281V; also called huNav1.7(E281V)-beta1-beta2-beta3
Procedure: as §2, §3

[13] = molecular target: T9, huNav1.7α(V331M) + β1-β2-β3 (human); assay: binding FACS, CHO FlpIn cells
T9 construct: polyprotein as encoded; the entry already carries V331M; also called huNav1.7(V331M)-beta1-beta2-beta3
Procedure: as §2, §3

huNav1.7α + β1-β2-β3 [14] = molecular target: T4, huNav1.7α + β1-β2-β3; assay: binding FACS, CHO FlpIn cells; remark: listed apart in the source
Procedure, shortened: as §1

rhNav1.7α + β1-β2-β3 [15] = molecular target: T5, rhNav1.7α + β1-β2-β3; assay: binding FACS, CHO FlpIn cells; remark: listed apart in the source
Procedure, shortened: as §1

huNav1.7α + β1-β2-β3 [16] = molecular target: T4, huNav1.7α + β1-β2-β3; assay: competition FACS, CHO FlpIn cells, vs EC25 of F0103275B05(N93R)
rhNav1.7α + β1-β2-β3 [17] = molecular target: T5, rhNav1.7α + β1-β2-β3; assay: competition FACS, CHO FlpIn cells, vs EC40 of F0103275B05(N93R)

Qpatch IC50 (rhNav1.7α + β1-β2-β3 [1]): 166 nM
Qpatch IC50 (huNav1.7α + β1): 7 nM
Bmax (huNav1.7α + β1-β2-β3 [2]): 99%
EC50 (huNav1.7α + β1-β2-β3 [2]): 5.2 nM
Bmax (rhNav1.7α + β1-β2-β3 [3]): 33%
EC50 (rhNav1.7α + β1-β2-β3 [3]): 18 nM
Bmax (muNav1.7α [4]): 74%
EC50 (muNav1.7α [4]): 6.3 nM
EC50 (huNav1.7α + β1-β2-β3 [5]): 5.2 nM
EC50 (rhNav1.7α + β1-β2-β3 [6]): 18 nM
EC50 (muNav1.7α [7]): 6.3 nM
B1: F0103464B09 (parental)-FLAG-HIS6 (VHH)
VHH: EVQLVESGGGLVQPGGSLRLSCATTSRAFIRDVFTGWYRRVPGKERELVARIYNGGNTNYADFAKGRFSISRDNAKKMVTLRMSNLKPEDTGVYYCLFSGTINTGREYRSGDYWGQGTLVTVSS
notes: also called F010346B09

EC50 (huNav1.7α + β1-β2-β3 [8]): 3.4 nM
EC50 (rhNav1.7α + β1-β2-β3 [9]): 31 nM
EC50 [10]: 2.7 nM
EC50 [11]: 2.6 nM
EC50 [12]: 2.7 nM
EC50 [13]: 1.6 nM
EC50 (huNav1.7α + β1-β2-β3 [14]): 5.4 nM
Bmax (rhNav1.7α + β1-β2-β3 [15]): 54%
EC50 (rhNav1.7α + β1-β2-β3 [15]): 33 nM
IC50 (huNav1.7α + β1-β2-β3 [16]): 12 nM
IC50 (rhNav1.7α + β1-β2-β3 [17]): 79 nM
B2: F0103464B09 (VHH)
VHH: B1 VHH
notes: entry includes the FLAG-HIS6 tag; also called F0103464B09 (parental)-FLAG-HIS6; F103464B09
